This passage reports Kd and IC50 results from the Immune Epitope Database (IEDB).

Experiment [1] has as its target HLA-A*02:01. Kind of experiment: IEDB peptide-MHC binding, purified MHC/direct/fluorescence; filed as Kd, often an IC50 or EC50 that approximates it; ≥ and ≤ were set here for values at or beyond the usual limits of such assays. The following applies: source organism: Salmonella enterica subsp. enterica serovar Typhimurium.
In another experiment the target is HLA-B*27:03. The experiment is described as above. The following applies: source organism: Salmonella enterica subsp. enterica serovar Typhimurium.
Experiment [2] has as its target HLA-B*15:01. The experiment is described as above. Particulars: source organism: Salmonella enterica subsp. enterica serovar Typhimurium.
Experiment [3] addresses HLA-A*03:01. The description is as above. Particulars: source organism: Salmonella enterica subsp. enterica serovar Typhimurium.
The target of experiment [4] is HLA-A*02:12. The description is as above. The following applies: source organism: Salmonella enterica subsp. enterica serovar Typhimurium.
In the next experiment the target is HLA-B*57:01. The description is as above. Particulars: source organism: Salmonella enterica subsp. enterica serovar Typhimurium.
The target in experiment [5] is HLA-B*18:01. The description is as above. Particulars: source organism: Salmonella enterica subsp. enterica serovar Typhimurium.
Experiment [6] deals with HLA-A*02:06. The description is as above. Particulars: source organism: Salmonella enterica subsp. enterica serovar Typhimurium.
In the next experiment the target is HLA-B*46:01. Described as above. Particulars: source organism: Salmonella enterica subsp. enterica serovar Typhimurium.
Experiment [7] concerns the target HLA-A*02:01. Nature of the experiment: IEDB peptide-MHC binding, purified MHC/competitive/fluorescence; filed as Kd, often an IC50 or EC50 that approximates it; ≥ and ≤ were set here for values at or beyond the usual limits of such assays. The following applies: source organism: Pseudomonas sp. MIS38.
For the next experiment, the target named is HLA-A*69:01. The experiment is described as above. Particulars: source organism: Pseudomonas sp. MIS38.
Experiment [8] concerns the target HLA-A*24:02. The description is as above. Particulars: source organism: Pseudomonas sp. MIS38.
The next experiment addresses HLA-A*02:16. The experiment is described as above. Particulars: source organism: Pseudomonas sp. MIS38.
In another experiment the target is HLA-A*02:03. The description is as above. Particulars: source organism: Pseudomonas sp. MIS38.
A further experiment has as its target HLA-B*40:01. The description is as above. The following applies: source organism: Pseudomonas sp. MIS38.
Experiment [9] deals with HLA-B*15:01. The description is as above. Particulars: source organism: Pseudomonas sp. MIS38.
The target in experiment [10] is HLA-A*11:01. The experiment is described as above. Particulars: source organism: Pseudomonas sp. MIS38.
Experiment [11] has as its target HLA-A*03:01. The experiment is described as above. Particulars: source organism: Pseudomonas sp. MIS38.
The target of experiment [12] is HLA-B*07:02. The description is as above. Particulars: source organism: Pseudomonas sp. MIS38.
In a further experiment the target is HLA-B*27:05. The description is as above. The following applies: source organism: Pseudomonas sp. MIS38.
Another experiment concerns the target HLA-A*02:50. Described as above. The following applies: source organism: Pseudomonas sp. MIS38.
The target of experiment [13] is HLA-A*02:12. Described as above. Particulars: source organism: Pseudomonas sp. MIS38.
The target in experiment [14] is HLA-A*01:01. The experiment is described as above. The following applies: source organism: Pseudomonas sp. MIS38.
The next experiment deals with HLA-A*30:01. The description is as above. The following applies: source organism: Pseudomonas sp. MIS38.
The target in experiment [15] is HLA-A*02:06. The experiment is described as above. The following applies: source organism: Pseudomonas sp. MIS38.
The next experiment has as its target HLA-A*02:11. Described as above. The following applies: source organism: Pseudomonas sp. MIS38.
The target in experiment [16] is HLA-B*58:01. The description is as above. Particulars: source organism: Pseudomonas sp. MIS38.
A further experiment has as its target HLA-A*02:19. The experiment is described as above. The following applies: source organism: Pseudomonas sp. MIS38.
In the next experiment the target is HLA-B*53:01. Nature of the experiment: IEDB peptide-MHC binding, purified MHC/competitive/fluorescence; ≥ and ≤ were set here for values at or beyond the usual limits of such assays.
Experiment [17] addresses HLA-A*02:01. Described as above.
The target of another experiment is HLA-B*40:02. The description is as above.
Another experiment concerns the target HLA-B*14:02. The experiment is described as above.
In the next experiment the target is HLA-B*08:01. The experiment is described as above.
The next experiment has as its target HLA-B*44:03. The description is as above.
The next experiment concerns the target HLA-A*29:02. Described as above.
The target in experiment [18] is HLA-A*24:02. The description is as above.
The next experiment concerns the target HLA-B*51:01. The description is as above.
The target in experiment [19] is HLA-A*11:01. Described as above.
The target of another experiment is HLA-A*68:02. The experiment is described as above.
For experiment [20], the target named is HLA-A*03:01. The experiment is described as above.
Experiment [21] concerns the target HLA-B*07:02. The description is as above.
The next experiment deals with HLA-A*31:01. The description is as above.
For the next experiment, the target named is HLA-B*37:01. The experiment is described as above.
Experiment [22] deals with HLA-A*01:01. The experiment is described as above.
For experiment [23], the target named is HLA-B*18:01. The experiment is described as above.
The next experiment concerns the target HLA-B*35:01. The experiment is described as above.
The target of experiment [24] is HLA-B*58:01. Described as above.
Another experiment addresses HLA-A*25:01. The description is as above.
The mark [25] stands for this setting: source organism: Monodelphis domestica.
The mark [26] stands for this setting: source organism: Gorilla gorilla gorilla.

As to QVNDVLHSV, the Kd in the experiment with HLA-A*02:01 [1] was 0.041 µM; in the experiment with HLA-B*27:03, not below 20 µM; in the experiment with HLA-B*15:01 [2], not below 20 µM; with HLA-A*03:01 [3], not below 20 µM; in the experiment with HLA-A*02:12 [4] it was 0.091 µM; with HLA-B*57:01 it was not below 20 µM. Moreover, the dissociation constant Kd with HLA-B*18:01 [5] is not below 20 µM; with HLA-A*02:06 [6] it was 0.003 µM; with HLA-B*46:01 it was not below 20 µM.

In the case of YMLKDSAPT, the Kd with HLA-A*02:01 [7] is 0.0602 µM; with HLA-A*69:01 it was 2 µM; with HLA-A*24:02 [8], not below 20 µM; in the experiment with HLA-A*02:16 it was 0.0005 µM; with HLA-A*02:03, 0.0042 µM; in the experiment with HLA-B*40:01 it was not below 20 µM. The dissociation constant Kd is 3.35 µM in the experiment with HLA-B*15:01 [9]; not below 20 µM with HLA-A*11:01 [10]; not below 20 µM with HLA-A*03:01 [11]; not below 20 µM in the experiment with HLA-B*07:02 [12]; not below 20 µM with HLA-B*27:05; 0.03 µM with HLA-A*02:50. Also, the Kd is 0.0019 µM with HLA-A*02:12 [13]; not below 20 µM with HLA-A*01:01 [14]; not below 20 µM with HLA-A*30:01; 0.0023 µM in the experiment with HLA-A*02:06 [15]; 0.0094 µM with HLA-A*02:11; not below 20 µM in the experiment with HLA-B*58:01 [16]. Moreover, the Kd with HLA-A*02:19 worked out at 0.0114 µM.

As to YSLEYFQFVKK, the IC50 with HLA-B*53:01 (setting [25]), with HLA-A*02:01 [17] (setting [25]), with HLA-B*40:02 (setting [25]), with HLA-B*14:02 (setting [25]), in the experiment with HLA-B*08:01 (setting [25]) and with HLA-B*44:03 (setting [25]) was not below 20 µM in each case. For the same sequence, the IC50 with HLA-A*29:02 (setting [25]) was not below 20 µM; in the experiment with HLA-A*24:02 [18] (setting [25]), not below 20 µM; with HLA-B*51:01 (setting [25]) it was not below 20 µM; in the experiment with HLA-A*11:01 [19] (setting [25]) it was 2.9 µM; with HLA-A*68:02 (setting [25]), not below 20 µM; in the experiment with HLA-A*03:01 [20] (setting [25]), not below 20 µM. The IC50 with HLA-B*07:02 [21] (setting [25]), in the experiment with HLA-A*31:01 (setting [25]), with HLA-B*37:01 (setting [25]), with HLA-A*01:01 [22] (setting [25]), with HLA-B*18:01 [23] (setting [25]) and with HLA-B*35:01 (setting [25]) was not below 20 µM throughout. The IC50 with HLA-B*58:01 [24] (setting [25]) and with HLA-A*25:01 (setting [25]) was not below 20 µM each time.

As to RYSHWTKL, the IC50 with HLA-B*53:01 (setting [26]), in the experiment with HLA-A*02:01 [17] (setting [26]), with HLA-B*40:02 (setting [26]), with HLA-B*14:02 (setting [26]), with HLA-B*08:01 (setting [26]) and with HLA-B*44:03 (setting [26]) was not below 20 µM throughout. Also, the IC50 with HLA-A*29:02 (setting [26]) was not below 20 µM; with HLA-A*24:02 [18] (setting [26]) it was 0.161 µM; with HLA-B*51:01 (setting [26]), not below 20 µM; with HLA-A*11:01 [19] (setting [26]) it was not below 20 µM; with HLA-A*68:02 (setting [26]), not below 20 µM; with HLA-A*03:01 [20] (setting [26]), not below 20 µM. Further, the IC50 was 17.3 µM with HLA-B*07:02 [21] (setting [26]); not below 20 µM with HLA-A*31:01 (setting [26]); not below 20 µM with HLA-B*37:01 (setting [26]); not below 20 µM with HLA-A*01:01 [22] (setting [26]); not below 20 µM with HLA-B*18:01 [23] (setting [26]); not below 20 µM in the experiment with HLA-B*35:01 (setting [26]). Also, the IC50 with HLA-B*58:01 [24] (setting [26]) and with HLA-A*25:01 (setting [26]) was not below 20 µM each time.
